Test results published in the supplement of paper PMC10065799, “High-throughput profiling of sequence recognition by tyrosine kinases and SH2 domains using bacterial peptide display” (eLife, 2023).

Columns and labels:
SHP2-C SH2 = test: SH2 binding enrichment of the phosphorylated peptide, bacterial display (enrichment ratio); higher = better substrate or ligand; peptides without Tyr show the background
c-Src SH2 = test: as above
Grb2 SH2 = Grb2 SH2 (UniProt P62993); test: as above
Jak2 = Jak2 (UniProt O60674); test: phosphorylation enrichment, bacterial display (enrichment ratio); higher = better substrate or ligand; peptides without Tyr show the background
EPHB1 = EPHB1 (UniProt P54762); test: as above
Chain of EPHB1 (P54762 whole entry, looked up): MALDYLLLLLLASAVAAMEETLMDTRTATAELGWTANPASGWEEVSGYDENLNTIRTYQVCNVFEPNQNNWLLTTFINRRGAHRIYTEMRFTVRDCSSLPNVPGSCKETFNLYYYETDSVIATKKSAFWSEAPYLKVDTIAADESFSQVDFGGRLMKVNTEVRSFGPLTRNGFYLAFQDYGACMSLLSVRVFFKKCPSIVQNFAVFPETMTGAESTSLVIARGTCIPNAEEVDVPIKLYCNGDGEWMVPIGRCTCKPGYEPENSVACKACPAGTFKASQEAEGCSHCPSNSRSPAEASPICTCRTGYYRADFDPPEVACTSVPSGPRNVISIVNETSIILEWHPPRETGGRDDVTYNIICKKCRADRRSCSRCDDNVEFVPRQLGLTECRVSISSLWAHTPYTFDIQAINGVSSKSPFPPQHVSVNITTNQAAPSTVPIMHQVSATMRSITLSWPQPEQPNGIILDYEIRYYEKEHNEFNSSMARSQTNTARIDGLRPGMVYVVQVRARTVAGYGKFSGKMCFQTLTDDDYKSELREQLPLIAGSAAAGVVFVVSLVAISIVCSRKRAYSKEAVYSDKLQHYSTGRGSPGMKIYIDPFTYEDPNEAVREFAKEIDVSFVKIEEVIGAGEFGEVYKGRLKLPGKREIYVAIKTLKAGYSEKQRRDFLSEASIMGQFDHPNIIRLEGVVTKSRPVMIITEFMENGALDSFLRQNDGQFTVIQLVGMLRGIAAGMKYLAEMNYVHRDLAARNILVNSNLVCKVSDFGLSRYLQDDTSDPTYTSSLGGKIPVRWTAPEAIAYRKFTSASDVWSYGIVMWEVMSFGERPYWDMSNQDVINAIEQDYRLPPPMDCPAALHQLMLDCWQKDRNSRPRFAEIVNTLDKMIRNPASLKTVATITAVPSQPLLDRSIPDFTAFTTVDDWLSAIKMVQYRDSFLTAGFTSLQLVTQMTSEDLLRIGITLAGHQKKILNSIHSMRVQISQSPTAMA

Hck = Hck (UniProt P08631); test: as above
Chain of Hck (P08631 whole entry, looked up): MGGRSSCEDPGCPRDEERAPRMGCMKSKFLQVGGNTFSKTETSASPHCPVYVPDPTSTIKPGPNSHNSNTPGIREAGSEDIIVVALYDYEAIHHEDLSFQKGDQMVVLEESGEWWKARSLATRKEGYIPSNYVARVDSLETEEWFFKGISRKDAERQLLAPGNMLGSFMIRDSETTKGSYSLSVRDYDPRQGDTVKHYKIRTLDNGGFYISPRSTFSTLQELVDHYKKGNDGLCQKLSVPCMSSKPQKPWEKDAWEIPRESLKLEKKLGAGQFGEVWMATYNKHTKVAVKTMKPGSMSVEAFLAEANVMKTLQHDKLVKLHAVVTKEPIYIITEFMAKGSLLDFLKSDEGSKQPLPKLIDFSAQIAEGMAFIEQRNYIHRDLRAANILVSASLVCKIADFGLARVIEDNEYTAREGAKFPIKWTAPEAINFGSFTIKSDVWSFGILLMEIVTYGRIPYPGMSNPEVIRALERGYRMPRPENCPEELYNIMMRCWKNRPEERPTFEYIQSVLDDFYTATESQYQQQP

Fes = Fes (UniProt P07332); test: as above
Chain of Fes (P07332 whole entry, looked up): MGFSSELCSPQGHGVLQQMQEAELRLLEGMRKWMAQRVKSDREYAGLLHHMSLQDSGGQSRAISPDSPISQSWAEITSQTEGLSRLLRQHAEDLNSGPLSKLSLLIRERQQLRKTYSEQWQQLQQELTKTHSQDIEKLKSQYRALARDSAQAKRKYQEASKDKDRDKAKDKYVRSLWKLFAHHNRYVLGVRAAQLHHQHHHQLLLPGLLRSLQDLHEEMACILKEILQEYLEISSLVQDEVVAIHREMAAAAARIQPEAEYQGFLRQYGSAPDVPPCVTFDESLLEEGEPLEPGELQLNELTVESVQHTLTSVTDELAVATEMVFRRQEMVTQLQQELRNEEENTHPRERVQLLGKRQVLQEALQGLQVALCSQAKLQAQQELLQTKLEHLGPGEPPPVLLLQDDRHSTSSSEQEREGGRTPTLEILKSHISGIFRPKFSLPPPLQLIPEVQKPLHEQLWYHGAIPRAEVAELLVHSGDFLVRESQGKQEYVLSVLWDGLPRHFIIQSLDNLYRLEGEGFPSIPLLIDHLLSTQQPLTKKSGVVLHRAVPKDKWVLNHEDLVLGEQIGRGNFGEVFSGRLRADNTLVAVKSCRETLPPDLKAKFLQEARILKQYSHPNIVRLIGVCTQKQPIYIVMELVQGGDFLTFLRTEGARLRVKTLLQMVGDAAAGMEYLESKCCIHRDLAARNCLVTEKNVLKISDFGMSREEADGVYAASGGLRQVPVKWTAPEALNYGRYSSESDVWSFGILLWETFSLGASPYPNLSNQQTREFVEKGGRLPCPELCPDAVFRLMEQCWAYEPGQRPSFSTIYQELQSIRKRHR

FGFR1 = FGFR1 (UniProt P11362); test: as above
Chain of FGFR1 (P11362 whole entry, looked up): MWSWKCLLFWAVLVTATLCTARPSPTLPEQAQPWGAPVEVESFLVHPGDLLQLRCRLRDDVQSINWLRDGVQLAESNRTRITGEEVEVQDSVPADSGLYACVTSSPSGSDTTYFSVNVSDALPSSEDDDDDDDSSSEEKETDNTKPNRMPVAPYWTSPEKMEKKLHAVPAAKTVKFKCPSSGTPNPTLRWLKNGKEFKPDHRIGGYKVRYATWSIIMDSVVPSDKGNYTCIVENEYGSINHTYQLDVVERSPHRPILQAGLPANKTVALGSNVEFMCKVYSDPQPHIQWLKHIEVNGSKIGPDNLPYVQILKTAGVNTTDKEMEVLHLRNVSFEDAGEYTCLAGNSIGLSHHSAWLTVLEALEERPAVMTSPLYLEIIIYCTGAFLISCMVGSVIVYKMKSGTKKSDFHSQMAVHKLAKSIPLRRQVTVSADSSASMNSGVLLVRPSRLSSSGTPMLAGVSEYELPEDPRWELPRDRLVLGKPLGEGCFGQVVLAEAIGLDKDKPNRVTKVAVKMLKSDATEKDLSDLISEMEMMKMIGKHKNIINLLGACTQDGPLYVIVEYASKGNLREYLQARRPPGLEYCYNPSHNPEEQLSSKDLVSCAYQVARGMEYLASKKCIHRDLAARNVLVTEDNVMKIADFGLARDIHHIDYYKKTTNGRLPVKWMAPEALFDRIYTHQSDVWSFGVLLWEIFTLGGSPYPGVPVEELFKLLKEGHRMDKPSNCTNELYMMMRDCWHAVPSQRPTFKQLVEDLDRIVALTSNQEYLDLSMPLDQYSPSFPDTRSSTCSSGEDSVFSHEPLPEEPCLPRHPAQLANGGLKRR

Fyn = Fyn (UniProt P06241); test: as above
Chain of Fyn (P06241 whole entry, looked up): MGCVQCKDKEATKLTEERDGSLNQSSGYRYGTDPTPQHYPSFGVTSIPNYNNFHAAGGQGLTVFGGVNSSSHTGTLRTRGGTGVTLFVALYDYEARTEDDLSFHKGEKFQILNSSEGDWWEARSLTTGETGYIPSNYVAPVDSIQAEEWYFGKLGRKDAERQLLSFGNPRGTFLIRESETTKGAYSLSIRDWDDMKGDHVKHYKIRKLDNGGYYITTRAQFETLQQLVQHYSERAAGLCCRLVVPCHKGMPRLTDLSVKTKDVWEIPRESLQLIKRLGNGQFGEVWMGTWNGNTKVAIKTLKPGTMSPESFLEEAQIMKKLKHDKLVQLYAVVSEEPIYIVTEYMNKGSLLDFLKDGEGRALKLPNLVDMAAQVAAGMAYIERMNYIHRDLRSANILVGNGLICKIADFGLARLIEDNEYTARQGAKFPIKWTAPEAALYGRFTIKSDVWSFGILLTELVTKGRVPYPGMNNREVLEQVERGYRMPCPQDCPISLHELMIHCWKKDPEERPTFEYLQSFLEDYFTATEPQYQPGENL

AncSZ = test: as above
c-Abl (mouse) = test: as above
c-Src = test: as above
MERTK = MERTK (UniProt Q12866); test: as above
EPHB2 = EPHB2 (UniProt P29323); test: as above
Chain of EPHB2 (P29323 whole entry, looked up): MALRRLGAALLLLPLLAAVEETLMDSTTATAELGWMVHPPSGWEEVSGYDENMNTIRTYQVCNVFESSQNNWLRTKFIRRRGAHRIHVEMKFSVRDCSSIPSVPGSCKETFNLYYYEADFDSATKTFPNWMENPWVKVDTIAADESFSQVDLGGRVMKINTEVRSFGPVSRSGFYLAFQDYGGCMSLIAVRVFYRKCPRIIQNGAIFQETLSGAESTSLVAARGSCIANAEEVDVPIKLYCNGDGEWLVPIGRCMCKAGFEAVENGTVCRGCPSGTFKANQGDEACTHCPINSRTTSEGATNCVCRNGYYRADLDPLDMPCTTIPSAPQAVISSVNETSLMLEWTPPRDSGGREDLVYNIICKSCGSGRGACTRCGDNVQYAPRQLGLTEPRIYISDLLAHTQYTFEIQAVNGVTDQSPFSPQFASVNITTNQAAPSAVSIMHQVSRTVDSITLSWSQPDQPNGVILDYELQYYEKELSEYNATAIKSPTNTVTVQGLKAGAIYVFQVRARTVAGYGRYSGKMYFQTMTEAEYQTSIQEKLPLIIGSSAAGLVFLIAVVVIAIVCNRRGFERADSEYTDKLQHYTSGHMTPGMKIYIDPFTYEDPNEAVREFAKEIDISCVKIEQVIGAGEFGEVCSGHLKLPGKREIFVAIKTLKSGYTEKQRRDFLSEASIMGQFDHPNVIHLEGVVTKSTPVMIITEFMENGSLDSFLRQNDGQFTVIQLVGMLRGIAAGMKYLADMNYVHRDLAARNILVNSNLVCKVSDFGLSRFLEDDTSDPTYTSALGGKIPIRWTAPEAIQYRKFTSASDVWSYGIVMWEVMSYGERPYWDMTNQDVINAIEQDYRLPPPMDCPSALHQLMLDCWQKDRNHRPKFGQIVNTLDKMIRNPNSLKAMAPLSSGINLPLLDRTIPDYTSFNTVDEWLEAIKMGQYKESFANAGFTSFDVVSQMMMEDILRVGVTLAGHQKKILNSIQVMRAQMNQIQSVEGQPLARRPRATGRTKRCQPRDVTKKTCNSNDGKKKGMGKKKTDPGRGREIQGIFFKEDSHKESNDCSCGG

FGFR3 = FGFR3 (UniProt P22607); test: as above
Fer (mouse) = test: as above
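For SH2 binding enrichment of the phosphorylated peptide, bacterial display in this document: peptide library displayed on the E. coli surface as eCPX fusions, selected cells deep-sequenced, score is each peptide's frequency after selection divided by its frequency in the input.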
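For phosphorylation enrichment, bacterial display in this document: 11-residue human phosphosite peptides and single-mutation variants displayed on the E. coli surface, counted by deep sequencing, each peptide's frequency after selection divided by its frequency in the unselected input library; frequency after pTyr selection over input frequency; kinase dosed for 20-30% of maximal phosphorylation in three min.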

Chain of Grb2 SH2 (P62993 whole entry, looked up): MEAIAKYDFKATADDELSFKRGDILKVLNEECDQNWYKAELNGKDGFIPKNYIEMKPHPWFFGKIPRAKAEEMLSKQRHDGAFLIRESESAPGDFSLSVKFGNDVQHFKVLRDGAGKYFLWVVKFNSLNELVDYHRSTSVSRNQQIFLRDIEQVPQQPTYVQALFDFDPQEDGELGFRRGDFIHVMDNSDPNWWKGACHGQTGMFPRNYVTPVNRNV

Sequence	SH2 binding enrichment (SHP2-C SH2)	SH2 binding enrichment (c-Src SH2)	SH2 binding enrichment (Grb2 SH2)	phosphorylation enrichment (Jak2)	phosphorylation enrichment (EPHB1)	phosphorylation enrichment (Hck)	phosphorylation enrichment (Fes)	phosphorylation enrichment (FGFR1)	phosphorylation enrichment (Fyn)	phosphorylation enrichment (AncSZ)	phosphorylation enrichment (c-Abl (mouse))	phosphorylation enrichment (c-Src)	phosphorylation enrichment (MERTK)	phosphorylation enrichment (EPHB2)	phosphorylation enrichment (FGFR3)	phosphorylation enrichment (Fer (mouse))
WASGIYFVPKG [APBB1IP_Y340_R335W_YF]	1.17	0.848	1.29	7.69	10.1	7.16	0.993	4.77	7.44	2.81	28.7	5.32	9	10	4.26	2.87
WKKEIYEESST [MOCS2_Y170]	0.535	0.448	0.776	1.18	0.422	0.488	1.17	2.85	0.424	1.04	0.83	0.485	0.378	0.603	0.661	0.471
WQQQSYLDSEI [CTNNB1_Y30_G34E]	0.707	0.49	0.992	0.96	0.512	0.444	0.854	0.397	0.437	0.792	0.581	0.421	0.377	0.557	0.669	0.514
YAADYYKLLGN [ROR2_Y646]	0.467	0.504	0.683	4.53	0.963	0.808	0.993	12.5	0.452	1.1	0.769	0.908	1.47	0.863	9.3	0.634
YAKSVYWDNTL [NUP107_Y296_E298D]	0.9	0.587	0.858	0.69	0.621	0.678	0.839	0.515	0.599	0.848	0.557	0.736	0.435	0.515	0.576	0.871
YDCGMYSHLQG [LGR4_Y848]	0.811	2.85	1.03	0.944	1.5	5.59	1.21	1.04	2.36	1.47	2.38	3.69	7.03	1.29	1	2.87
YDGKDYIALNE [HLA-A_Y147]	0.604	0.452	0.692	1.18	1.06	0.583	1.27	0.843	0.532	1.41	0.909	0.48	0.457	0.792	0.953	0.551
YEEDSYVTRSQ [RET_Y905_K907T]	0.628	2.16	0.906	1.04	0.59	0.543	1.12	0.604	0.499	1.21	0.69	0.496	0.468	0.565	0.964	0.548
YFCRWYRNQKS [EREG_Y144_R147Q]	0.545	0.275	0.712	0.371	0.481	0.372	0.48	0.473	0.447	0.565	0.444	0.477	0.523	0.385	0.548	0.454
YFVVEYRNQKP [MUC17_Y4332_D4334N]	3.19	2.83	1.58	2.32	0.931	0.605	1.36	11.1	0.842	1.72	0.722	0.836	4.22	0.842	9.02	0.738
YGEYRYRSVIK [CFTR_Y517_D513G]	0.819	0.817	0.769	0.599	0.458	3.67	0.826	0.454	7.2	0.714	0.745	4.36	0.463	0.462	0.644	0.49
YGGLRCGYGVL [KRTAP20-2_Y13_Y13C]	0.642	0.569	0.829	0.794	0.623	1.5	1.01	0.826	1	0.857	0.589	1.05	0.369	0.543	0.632	0.473
YIIFIYAMKKK [SLCO1B1_Y645_L643F]	1.68	1.23	2.31	0.545	0.273	0.473	0.536	0.655	0.343	0.602	0.465	0.287	0.849	0.239	0.507	0.433
YKEQGYHRLPS [RIN1_Y681_P686S]	0.853	0.751	0.802	0.763	0.245	0.279	0.508	0.485	0.366	0.531	0.455	0.439	0.413	0.366	0.485	0.363
YKWAVYCIIGR [NUP93_Y391_R388W]	1.42	1.36	2.41	1.08	3.37	1.29	1.48	0.527	1.04	1.23	0.981	1.18	0.953	1.83	0.751	0.646
YMRGMYFRMTD [PLA2G6_Y541_K545T]	1.83	1.2	0.959	1.41	0.63	0.578	1.16	0.592	0.434	1.21	0.771	0.427	0.773	0.566	0.908	0.481
YPKAHYHWLVL [APTX_Y214_R213H]	1.43	1.2	1.6	1.16	0.505	0.501	1.15	2.54	0.368	0.823	0.846	0.487	0.61	0.482	1.94	0.571
YPPTHYIRRVP [SLC4A11_Y820]	0.596	0.443	0.675	0.76	0.407	0.369	0.678	0.448	0.444	0.754	0.601	0.449	0.469	0.492	0.43	0.346
YQGGTYSKAST [FGG_Y380]	0.557	0.716	0.846	0.373	0.33	0.424	0.526	0.423	0.449	0.867	0.388	0.424	0.43	0.419	0.43	0.387
YQLENYCNGGG [INS_Y108]	0.697	0.76	0.862	0.461	0.686	0.568	0.812	0.536	0.57	0.768	0.473	0.455	0.426	0.572	0.477	0.55
YQNGMYGLHQD [SGSH_Y89_H84Y]	0.585	1.11	5.48	0.712	0.487	1	0.808	0.605	0.751	0.874	0.748	0.957	0.566	0.687	0.631	0.55
YRQNGYIPGSN [PCDHGA1_Y895_V894G]	0.896	0.452	0.846	0.467	0.381	0.405	0.547	0.399	0.384	0.485	0.47	0.422	0.405	0.404	0.439	0.423
YSKDIYKRVTG [PANK2_Y405_N404I]	0.612	0.487	0.813	0.447	0.38	0.487	0.51	0.409	0.415	0.5	0.435	0.394	0.401	0.419	0.342	0.551
YSMGCYEFSLG [HMGCL_Y198_I200F]	0.864	0.701	0.8	1.06	1.52	1.25	1.39	1.23	2.12	2.47	0.864	2.37	3.64	1.37	1.37	4.95
YYSSEYHCVGG [CTSC_Y345_Y347C]	0.576	0.834	0.726	3.05	7.69	2.58	1.04	11.5	2.49	3.84	6.69	3.66	8.36	8.59	9.28	1.26
